Measured values: article PMC4161475

Target: G-actin (rabbit skeletal muscle actin, monomeric) (rabbit) (UniProt P68135)
Experiment: ELISA; solid-phase assay: wells coated with 5 µM G-actin in PBS, 5 µM protein added, detected with anti-EhCoactosin antibody; in the presence of Ca2+ (2 mM) or EGTA (5 mM)

Q: Which percent decrease in binding against WT does the source give for “EhCoactosin with the C-terminal 14 residues deleted (domain or fragment)” here?
A: 33%
